Measurements reported in the supplement of paper PMC7877785.
± gives the uncertainty stated by the source.

Assay: self-splicing fitness, log relative to wild type (ln ratio); higher = more splicing; Tetrahymena group I intron in knt gene, E. coli kanamycin selection, DiMSum; sequences stand for … in CUCUCU…GGAGGGAAAAGUUAUCAGGCAUGCACCUGGUAGCUAGUCUUUAAACCAAUAGAUUGCAUCGGUUUAAAAGGCAAGACCGUCAAAUUGCGGGAAAGGGGUCAACAGCCGUUCAGUACCAAGUCUCAGGGGAAACUUUGAGAUGGCCUUGCAAAGGGUAUGGUAAUAAGCUGACGGACAUGGUCCUAACCACGCAGCCAAGUCCUAAGUCAACAGAUCUUCUGUUGAUAUGGAUGCAGUUCACAGACUAAAUGUCGGUCGGGGAAGAUGUAUUCUUCUCAUAAGAUAUAGUCGGACCUCUCCUUAAUGGGAGCUAGCGGAUGAAGUGAUGCAACACUGGAGCCGCUGGGAACUAAUUUGUAUGCGAAAGUAUAUUGAUUAGUUUUGGAGUACUCGUGGUCG
Method in brief: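 Fitness was computed with DiMSum as the error-weighted combination of replicate fold changes, kanamycin versus none, each normalised to wild type. The library randomised all eight intron nucleotides of the P1ex region, with the intron placed in the knt kanamycin-resistance gene on pET-22b(+) in E. coli BL21(DE3). Six replicate transformations were grown overnight at 37°C or 30°C on LB agar with or without 25 μg/mL kanamycin, plus 100 μg/mL carbenicillin, 50 μM IPTG and 0.2% rhamnose. Pooled colonies were amplicon-sequenced on an Illumina HiSeq 2500.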

| Sequence | self-splicing fitness (ln) (30 °C) | self-splicing fitness (ln) (37 °C) |
| --- | --- | --- |
| CACCAGCAAUAUUACGACUA | -0.763 ± 0.12 | -1.3 ± 0.17 |
| CACCAGCAAUAUUACGAUAU | -3.22 ± 0.17 | -2.46 ± 0.2 |
| CACCAGCAAUAUUACGAUCU | -4.3 ± 0.23 | -2.43 ± 0.15 |
| CACCAGCAAUAUUACGAUGC | -2.96 ± 0.13 | -2.06 ± 0.14 |
| CACCAGCAAUAUUACGAUUC | -2.18 ± 0.094 | -2.32 ± 0.18 |
| CACCAGCAAUAUUACGCAAG | -0.716 ± 0.093 | -0.12 ± 0.11 |
| CACCAGCAAUAUUACGCAGA | -3.13 ± 0.13 | -2.57 ± 0.13 |
| CACCAGCAAUAUUACGCGCU | -3.42 ± 0.14 | -2.59 ± 0.16 |
| CACCAGCAAUAUUACGCUGA | -3.31 ± 0.17 | -2.68 ± 0.15 |
| CACCAGCAAUAUUACGCUUA | -2.24 ± 0.09 | -1.23 ± 0.083 |
| CACCAGCAAUAUUACGGCAU | -2.64 ± 0.066 | -0.735 ± 0.069 |
| CACCAGCAAUAUUACGGCGU | -2.28 ± 0.097 | -0.886 ± 0.11 |
| CACCAGCAAUAUUACGGGAC | -4.05 ± 0.13 | -2.05 ± 0.1 |
| CACCAGCAAUAUUACGGGUG | -3.87 ± 0.15 | -2.26 ± 0.15 |
| CACCAGCAAUAUUACGGUCG | -1.28 ± 0.062 | -0.351 ± 0.069 |
| CACCAGCAAUAUUACGGUCU | -1.44 ± 0.044 | -1.04 ± 0.057 |
| CACCAGCAAUAUUACGGUUA | -0.251 ± 0.068 | -0.0422 ± 0.09 |
| CACCAGCAAUAUUACGUAAU | -2.63 ± 0.078 | -1.89 ± 0.097 |
| CACCAGCAAUAUUACGUACA | -3.16 ± 0.17 | -1.59 ± 0.13 |
| CACCAGCAAUAUUACGUAUC | -3.55 ± 0.14 | -2.99 ± 0.19 |
| CACCAGCAAUAUUACGUAUG | -0.556 ± 0.041 | -0.105 ± 0.055 |
| CACCAGCAAUAUUACGUCCG | -0.0929 ± 0.051 | 0.19 ± 0.071 |
| CACCAGCAAUAUUACGUGCC | -3.42 ± 0.27 | -1.27 ± 0.46 |
| CACCAGCAAUAUUACGUGUA | -2.09 ± 0.065 | -0.896 ± 0.069 |

| Sequence | self-splicing fitness (ln) (30 °C) | self-splicing fitness (ln) (37 °C) |
| --- | --- | --- |
| CACCAGCAAUAUUACGUUGA | -4.33 ± 0.31 | -2.1 ± 0.13 |
| CACCAGCAAUAUUACGUUUU | -3.95 ± 0.15 | -3.22 ± 0.18 |
| CACGAGCAAUAUUACGAAAC | -2.02 ± 0.36 | -1.68 ± 0.4 |
| CACGAGCAAUAUUACGAAGG | -3.2 ± 0.19 | -2.01 ± 0.26 |
| CACGAGCAAUAUUACGACAU | -3.645 ± 0.024 | -2.92 ± 0.04 |
| CACGAGCAAUAUUACGACCU | -2.18 ± 0.17 | -2.27 ± 0.27 |
| CACGAGCAAUAUUACGAGCC | -3.12 ± 0.31 | -3.55 ± 0.47 |
| CACGAGCAAUAUUACGAGCU | -4.14 ± 0.35 | -3.33 ± 0.39 |
| CACGAGCAAUAUUACGAGUG | -3.34 ± 0.17 | -1.83 ± 0.18 |
| CACGAGCAAUAUUACGAUAA | -3.63 ± 0.32 | -2.32 ± 0.28 |
| CACGAGCAAUAUUACGAUAU | -2.64 ± 0.15 | -2.19 ± 0.28 |
| CACGAGCAAUAUUACGCAGC |  | -1.29 ± 0.35 |
| CACGAGCAAUAUUACGCCAC | -2.97 ± 0.38 | -1.02 ± 0.34 |
| CACGAGCAAUAUUACGCCAG | -3.4 ± 0.27 | -2.95 ± 0.28 |
| CACGAGCAAUAUUACGCGGA | -3.61 ± 0.37 | -3.37 ± 0.4 |
| CACGAGCAAUAUUACGCUUC | -3.96 ± 0.24 | -3.25 ± 0.3 |
| CACGAGCAAUAUUACGGAAU | -2.85 ± 0.25 | -1.67 ± 0.23 |
| CACGAGCAAUAUUACGGCUC | -2.71 ± 0.29 | -1.6 ± 0.28 |
| CACGAGCAAUAUUACGUAAC | -2.41 ± 0.27 |  |
| CACGAGCAAUAUUACGUCCG | -1.34 ± 0.092 | -0.226 ± 0.096 |
| CACGAGCAAUAUUACGUUAC | -4.19 ± 0.36 | -1.25 ± 0.23 |
| CACGAGCAAUAUUACGUUGC | -3.91 ± 0.24 | -2.14 ± 0.21 |
| CACUAGCAAUAUUACGACAA | -3.16 ± 0.37 | -2.06 ± 0.29 |
| CACUAGCAAUAUUACGAGCA | -3.42 ± 0.18 | -0.879 ± 0.11 |

| Sequence | self-splicing fitness (ln) (30 °C) | self-splicing fitness (ln) (37 °C) |
| --- | --- | --- |
| CACUAGCAAUAUUACGAGGC | -4.08 ± 0.42 | -2.38 ± 0.2 |
| CACUAGCAAUAUUACGAUUA | -1.21 ± 0.21 | -2.44 ± 0.28 |
| CACUAGCAAUAUUACGCACG | -0.378 ± 0.099 | -0.823 ± 0.089 |
| CACUAGCAAUAUUACGCACU | -1.54 ± 0.11 | -0.108 ± 0.11 |
| CACUAGCAAUAUUACGCAUU | -3.06 ± 0.23 | -2.17 ± 0.17 |
| CACUAGCAAUAUUACGCCCA | -1.1 ± 0.16 | -1.35 ± 0.27 |
| CACUAGCAAUAUUACGCGAC | -3.04 ± 0.18 | -3.16 ± 0.3 |
| CACUAGCAAUAUUACGCGAG | -2.13 ± 0.26 | -1.79 ± 0.17 |
| CACUAGCAAUAUUACGCUGC | -3.71 ± 0.32 | -2.76 ± 0.35 |
| CACUAGCAAUAUUACGGACA | -1.84 ± 0.16 | -1.99 ± 0.18 |
| CACUAGCAAUAUUACGGAGU | -3.63 ± 0.18 | -2.14 ± 0.16 |
| CACUAGCAAUAUUACGGUAA | -2.52 ± 0.16 | -0.923 ± 0.11 |
| CACUAGCAAUAUUACGUACC | -3.22 ± 0.18 | -2.55 ± 0.24 |
| CACUAGCAAUAUUACGUAGU | -3.45 ± 0.14 | -2.92 ± 0.18 |
| CACUAGCAAUAUUACGUAUU | -3.28 ± 0.17 | -2.11 ± 0.15 |
| CACUAGCAAUAUUACGUCGA | -1.58 ± 0.13 | -1.48 ± 0.1 |
| CAGAAGCAAUAUUACGAAAU | -3.92 ± 0.42 | -1.33 ± 0.38 |
| CAGAAGCAAUAUUACGAACA | -1.81 ± 0.18 | -0.783 ± 0.17 |
| CAGAAGCAAUAUUACGAAGA | -3.8 ± 0.27 | -2.85 ± 0.25 |
| CAGAAGCAAUAUUACGAAUA | -2.43 ± 0.27 | -1.84 ± 0.24 |
| CAGAAGCAAUAUUACGAGAG | -2.78 ± 0.17 | -1.98 ± 0.19 |
| CAGAAGCAAUAUUACGAGCA |  | -1.3 ± 0.38 |
| CAGAAGCAAUAUUACGAUAU | -3.56 ± 0.2 | -2.53 ± 0.15 |
| CAGAAGCAAUAUUACGAUUG | -1.92 ± 0.11 | -1.47 ± 0.12 |

| Sequence | self-splicing fitness (ln) (30 °C) | self-splicing fitness (ln) (37 °C) |
| --- | --- | --- |
| CAGAAGCAAUAUUACGCACA | -1.56 ± 0.077 | -0.438 ± 0.087 |
| CAGAAGCAAUAUUACGCACC | -3.18 ± 0.41 | -2.1 ± 0.46 |
| CAGAAGCAAUAUUACGCCCA | -1.97 ± 0.15 | -0.986 ± 0.16 |
| CAGAAGCAAUAUUACGCGUA | -2.63 ± 0.27 | -1.69 ± 0.15 |
| CAGAAGCAAUAUUACGCUAC | -0.828 ± 0.41 |  |
| CAGAAGCAAUAUUACGCUAG | -2.82 ± 0.18 | -1.73 ± 0.2 |
| CAGAAGCAAUAUUACGCUGG | -2.84 ± 0.15 | -2.21 ± 0.15 |
| CAGAAGCAAUAUUACGCUUG | -4.25 ± 0.16 | -2.99 ± 0.14 |
| CAGAAGCAAUAUUACGGACC | -3.56 ± 0.48 | -2.5 ± 0.46 |
| CAGAAGCAAUAUUACGGCAU | -3.35 ± 0.19 | -1.95 ± 0.15 |
| CAGAAGCAAUAUUACGGGCA | -2.53 ± 0.16 | -1.76 ± 0.18 |
| CAGAAGCAAUAUUACGGGUC | -3.4 ± 0.29 | -2.55 ± 0.2 |
| CAGAAGCAAUAUUACGGGUU | -3.12 ± 0.24 | -3.23 ± 0.21 |
| CAGAAGCAAUAUUACGUACU | -1.83 ± 0.13 | -1.22 ± 0.12 |
| CAGAAGCAAUAUUACGUAGG | -0.872 ± 0.06 | 0.297 ± 0.1 |
| CAGCAGCAAUAUUACGAAGG | -1.16 ± 0.11 | -1.05 ± 0.11 |
| CAGCAGCAAUAUUACGACAA | -3.11 ± 0.39 | -1.67 ± 0.23 |
| CAGCAGCAAUAUUACGACAG | -0.416 ± 0.073 | 0.533 ± 0.1 |
| CAGCAGCAAUAUUACGACUA | -0.351 ± 0.068 | 0.43 ± 0.081 |
| CAGCAGCAAUAUUACGAGUC | -4.41 ± 0.29 | -2.24 ± 0.14 |
| CAGCAGCAAUAUUACGCCAG | -0.865 ± 0.089 | 0.0215 ± 0.12 |
| CAGCAGCAAUAUUACGCGGA | -2.58 ± 0.14 | -1.14 ± 0.11 |
| CAGCAGCAAUAUUACGGCGG | -1.93 ± 0.093 | -1.5 ± 0.16 |
| CAGCAGCAAUAUUACGUCGC | -3.31 ± 0.18 | -2.21 ± 0.21 |
